Data from patent publication US20220290200A1, “GENETICALLY MODIFIED HOST CELLS PRODUCING GLYCOSYLATED CANNABINOIDS” (OCTARINE BIO IVS, priority 2019, published 2022).

Experiments:
[1] = In vitro glycosyl transferase performance, purified enzymes, % conversion of cannabinoids to cannabinoid glycosides; assay type: biochemical; settings: for Conversion % (CBD to the glycoside): acceptor CBD; for % conversion of CBD to OB9 (CBD-1′-O-β-D-xyloside): Table 26; for % conversion of CBDA to OB31 (CBDA-1′-O-β-D-glucoside): Table 37; for % conversion, 11-nor-9-carboxy-THC to OB41 (11-nor-9-carboxy-THC-1′-O-β-D-glucoside): substrate 11-nor-9-carboxy-THC, product OB41; for % conversion, CBG to OB33 (CBG-1′-O-β-D-glucosyl-3′-O-β-D-glucoside): product OB33; for % conversion, CBN to OB23 (CBN-1′-O-β-D-di-glucoside): substrate CBN, product OB23; for % conversion, THC to OB20 (THC-1′-O-β-D-glucoside): substrate THC, product OB20; for % conversion of CBDV to OB24 (CBDV-1′-O-β-D-glucoside): Table 33
Method: For in vitro studies of glycosyl transferase performance in glycosylating cannabinoids, purified Glycosyl transferases were prepared as follows:
5 mL of 2× concentrated LB medium+Ampicillin (50 μg/m L) was inoculated with E. coli XJb (DE3) strains expressing a glycosyl transferase of interest and incubated overnight at 30° C. with shaking. The following day, cell cultures were transferred into 500 mL of 2× concentrated LB medium+Ampicillin (50 μg/mL) and incubated overnight at 30° C. with shaking. The following day, the cell cultures were transferred to 1 L of 2× concentrated LB medium+Ampicillin (50 μg/mL)+3 mM arabinose+0.1 mM IPTG. Cells were incubated for 24 h at 20° C. with shaking. The following day, the cells were collected by centrifugation at 46500×g for 10 mins at 4° C. Cells were resuspended in 20 mL ice-cold GT buffer (50 mM Tris-HCl pH7.4+1 mM phenylmethanesulfonyl fluoride+1 cOmplete™, mini, EDTA-free Protease Inhibitor Cocktail tablet (Roche)). The resuspended material was transferred to a 50 mL falcon tube and kept at −80° C. for at least 15 mins. Falcon tubes were then thawed at room temperature, as the tubes were thawing the following reagents were added; 2.6 mM MgCl2, 1 mM CaCl2, 250 μL of a 1.4 mg/ml DNase solution (Sigma) dissolved in MilliQ water. Tubes were gently inverted to mix then were incubated for 5 mins at 37° C. Binding buffer was then added to the tubes (50 mM Tris-HCl pH7.4, 10 mM imidazole, 500 mM NaCl. 11.25 mL MilliQ water) and the pH adjusted to 7.4 with HCl. The mix was centrifuged at 15550×g for 15 mins at 4° C., the supernatant transferred to a fresh 50 mL falcon tubes and centrifuged again to remove any remaining cellular debris at 48400×g for 20 minutes at 4° C. While the enzyme prep was centrifuging, 3 mL of HIS-Select (available from Sigma P6611) column material was added to a fresh 50 mL tube and washed by adding MilliQ water up to 50 mL, centrifuging at 2000×g for 2 mins and discarding the supernatant. This washing step was repeated. Finally, MilliQ water was added to the HIS-Select material to an approximate 50% volume. Collected supernatant from the centrifuged enzyme preparation was transferred to the tube containing the HIS-Select material through a Miracloth (available from Merck Millipore), and then incubated at 4° C. with gently shaking by inversion for 2 h. After 2 h the mix was centrifuged at 2000×g for 4 minutes at 4° C. and the supernatant discarded. The remaining HIS-Select material was washed twice with 1× binding buffer (50 mM Tris-HCl, 0.5M NaCl, 10 mM Imidazole, pH 7.4) with centrifugation at 2000×g for 4 minutes at 4° C. The HIS-Select material was resuspended in 5 mL 1× binding buffer and transferred to a Poly-Prep®Chromatography Column (available from BioRad, 7311550). The HIS-Select material was kept at 4° C. and washed twice with 1× binding buffer by filling up the column and allowing it to drip through. Finally, purified Glycosyl transferases were eluted from the HIS-Select material by adding 7.5 mL of elution buffer (50 mM Tris-HCl, 500 mM Imidazole, pH7.4) and collecting the flow through. Enzymes were used immediately in in vitro enzyme assays or stored at −20° C. in 50% glycerol until needed.
In vitro conversion of various cannabinoids to cannabinoid glycosides was carried out according to table 21. Alkaline phosphatase was provided by New England Biolabs (M0371S). Cannabinoids were dissolved in methanol. The UDP-sugar (e.g. UDP-glucose) was provided by a commercial supplier (e.g. Sigma) or produced by in vitro enzymatic conversion from a commercially available UDP-sugar as shown in Example 21.
The reaction mixture was scaled up or down as required. The reaction mixture was incubated without shaking at 30° C. for 24 hours. Extraction and analysis were performed as described above for this example. […]

[2] = In vitro enzymatic cascade converting sucrose and CBD to CBD glycosides; assay type: biochemical; settings: enzymes added: GmSuSy
Description: In the previous examples, in vitro glycosyl transferase assays required the addition of an “activated” sugar (e.g. UDP-glucose), which is typically an extremely expensive reagent, furthermore, other activated sugars e.g. UDP-rhamnose are not available commercially and must be custom synthesized at high-cost and difficulty. […] To facilitate the low-cost production of cannabinoid glycosides not only with glucose, but with alternative sugars, an enzymatic cascade was set up to convert cannabinoids and the simple sugar sucrose into various cannabinoid glycosides. The cascade is divided into 3 steps, in step 1 sucrose and uridine diphosphate (UDP) is converted to UDP-glucose by GmSuSy (SEQ ID NO: 209, 210), additionally generating fructose as a bi-product. In step 2, UDP-glucose is interconverted to alternative UDP-sugars using a range of enzymes. For example, conversion of UDP-glucose to UDP-galactose by BsGa/E, multiple enzymes can also be used to produce UDP-sugars via other UDP-sugar intermediates. For example, conversion of UDP-glucose to UDP-glucuronic acid by AtUGDH1 combined with conversion of UDP-glucuronic acid to UDP-xylose by AtUXS3. In step 3, glycosyl transferases convert the activated sugar and a cannabinoid acceptor to the corresponding cannabinoid glycoside. For example, conversion of UDP-rhamnose and CBD to CBD-1′-O-β-D-rhamnoside (OB13) by Cs73Y (SEQ ID NO: 157, 158).
Enzymes were purified and the in vitro assay performed as described in Example 13 and the reaction mixture set up as shown in table 57. Enzymes and co-factors were added as required for each individual reaction. Samples were extracted and analyzed as stated above.

[3] = substrate CBG, glycosyl transferase in vitro

Molecule	% conversion of CBD to OB9 (CBD-1′-O-β-D-xyloside) ([1]; glycosyl transferase in vitro) [%]	% conversion of CBDA to OB31 (CBDA-1′-O-β-D-glucoside) ([1]; glycosyl transferase in vitro) [%]	% conversion, 11-nor-9-carboxy-THC to OB41 (11-nor-9-carboxy-THC-1′-O-β-D-glucoside) ([1]; glycosyl transferase in vitro) [%]	% conversion, CBG to OB33 (CBG-1′-O-β-D-glucosyl-3′-O-β-D-glucoside) [1, 3] [%]	% conversion, CBN to OB23 (CBN-1′-O-β-D-di-glucoside) ([1]; glycosyl transferase in vitro) [%]	% conversion, THC to OB20 (THC-1′-O-β-D-glucoside) ([1]; glycosyl transferase in vitro) [%]	% conversion of CBDV to OB24 (CBDV-1′-O-β-D-glucoside) ([1]; glycosyl transferase in vitro) [%]	other results
C=C(C)[C@@H]1CCC(C)=C[C@H]1c1c(O[C@@H]2OC[C@@H](O)[C@H](O)[C@H]2O)cc(CCCCC)cc1O[C@@H]1OC[C@@H](O)[C@H](O)[C@H]1O [OB10, CBD-1′-O-β-D-xylosyl-3′-O-β-D-xyloside]	–	–	–	–	–	–	–	Conversion % (CBD to the glycoside) ([1]; UDP-Xylose, enzyme PL-214(Cs73Y_GA)): 97.4%; % Conversion of CBD and sucrose to CBD glycoside ([2]; AtUGDH1, AtUXS3, Cs73Y): 72.3%
C=C(C)C1CCC(C)=CC1c1c(O)cc(CCCCC)cc1OC1OC(C)C(O)C(O)C1O [OB13, CBD-1′-O-α-L-rhamnoside]	–	–	–	–	–	–	–	Conversion % (CBD to the glycoside) ([1]; UDP-Rhamnose, enzyme PL-342(Cp73B_GA)): 5.7%; % Conversion of CBD and sucrose to CBD glycoside ([2]; AtRHM2, Cs73Y): 15.2%
PL-214(Cs73Y_GA) (protein) MGSEGRQLHIFMFPFMAHGHMIPIVDMAKLFASRGIKITIVTTPLNSISISKSLHNCSPNSLIQLLILKFPAAEAGLPDGCENADSIPSMDLLPKFFEAVSLLQPPFEEALHNNRPDCLISDMFFPWTNDVADRVGIPRLIFHGTSCFSLCSSEFMRLHKPYQHVSSDTEPFTIPYLPGDIKLTKMKLPIFVRENSENEFSKFITKVKESESFCYGVVVNSFYELEAEYVDCYKDVLGRKTWTIGPLSLTNTKTQEITLRGRESAIDEHECLKWLDSQKPNSVVYVCFGSLAKFNSAQLKEIAIGLEASGKKFIWVVRKGKGEEEEEEQNWLPEGYEERMEGTGLIIRGWAPQVLILDHPSVGGFVTHCGWNSTLEGVAAGVPMVTWPVGAEQFYNEKLVTEVLKTGVGVGVQKWAPGVGDFIESEAVEKAIRRIMEKEGEEMRNRAIELGKKAKWAVGEEGSSYSNLDALIEELKSLAF	6.9	98.6	2.0	100.0	98.6	29.5	–	% conversion of CBD to OB13 (CBD-1′-O-α-L- rhamnoside) ([1]; glycosyl transferase in vitro, Table 25): 4.4%; % conversion of CBD to OB6 (CBD-1′-O-β-D-glucosyl-3′-O-β-D-glucoside) ([1]; glycosyl transferase in vitro, Table 27): 95.8%; % conversion of CBD to OB10 (CBD-1′-O-β-D-xylosyl-3′-O-β-D-xyloside) ([1]; glycosyl transferase in vitro, Table 28): 98.5%; % conversion of CBD to OB7 (CBD-1′-O-β-D-tri-glucoside) ([1]; glycosyl transferase in vitro, Table 29): 27.3%; % conversion of CBD to OB8 (CBD-1′-O-β-D-glucosyl-3′-O-β-D-di-glucoside) ([1]; glycosyl transferase in vitro, Table 30): 12.3%; % conversion of CBDV to OB25 (CBDV-1′-O-β-O-glucosyl-3′-O-β-D-glucoside) ([1]; glycosyl transferase in vitro, Table 34): 91.0%
PL-182(Ha88B_2_GA) (protein) MESSTVVMYPSPGIGHLVSMVELGKLIHTHHPSLSVIILILTAPYETGATGKYINTVSATTPAITFHHLPAIALPPDFSSEFIDLAFGLPELYNSVVHNTLVAISQKSTIKAVILDFFSNAAFQVSTNLSLPTYYFFTSGTFGLCAFLYLTTLHKTTSKSIKDLNTLLDFPGVPPIHSSHMPTAIFDRESNSYKNFMKTSNNMAKCSGIIVNSFLELEERAVATLRDGKCITDGPTPPIYFIGPLIASGSQVDPNENECLKWLKTQPSKSVVFLCFGSMGVFEKEQLKEIAVGLERSGQRFLWVVRNPPLESSSGAKEFELDDILPEGFLTRTKDKGLVVKNWAPQPAILGHESVGGFVSHCGWNSSLEAVVSGVPMVAWPLYAEQQMNRVYLVEEIKVALWLRMSADGFVGAEAVEETVRKLMEGEEGRAVREQILEMSGGAKAAVEDGGSSRLDFLKLTRPWTDQ	9.6	15.5	–	26.5	68.0	80.3	89.0	% conversion of CBD to OB1 (CBD-1′-O-β-D-glucoside) ([1]; glycosyl transferase in vitro, Table 24): 50.0%; % conversion, CBG to OB32 (CBG-1′-O-β-D-glucoside) ([1]; substrate CBG, product OB32, glycosyl transferase in vitro): 82.9%
PL-28(At72B1_GA) (protein, UniProt Q9M156 1-480, looked up) UDP-glycosyltransferase 72B1: MEESKTPHVAIIPSPGMGHLIPLVEFAKRLVHLHGLTVTFVIAGEGPPSKAQRTVLDSLPSSISSVFLPPVDLTDLSSSTRIESRISLTVTRSNPELRKVFDSFVEGGRLPTALVVDLFGTDAFDVAVEFHVPPYIFYPTTANVLSFFLHLPKLDETVSCEFRELTEPLMLPGCVPVAGKDFLDPAQDRKDDAYKWLLHNTKRYKEAEGILVNTFFELEPNAIKALQEPGLDKPPVYPVGPLVNIGKQEAKQTEESECLKWLDNQPLGSVLYVSFGSGGTLTCEQLNELALGLADSEQRFLWVIRSPSGIANSSYFDSHSQTDPLTFLPPGFLERTKKRGFVIPFWAPQAQVLAHPSTGGFLTHCGWNSTLESVVSGIPLIAWPLYAEQKMNAVLLSEDIRAALRPRAGDDGLVRREEVARVVKGLMEGEEGKGVRNKMKELKEAACRVLKDDGTSTKALSLVALKWKAHKKELEQNGNH	–	–	0.9	–	–	–	9.9	–
